The values that follow come from article PMC3961692.

Series [1] addresses human interleukin-6 (Homo sapiens) (UniProt P05231). Kind of series: solution affinity (radiolabel, ZORBAX resin capture). To be noted: SB17T: 40 mM HEPES pH 7.5, 102 mM NaCl, 5 mM KCl, 5 mM MgCl2, 1 mM EDTA, 0.05% Tween 20, 37 C.
For series [2] the target is unchanged. The experiment in a line: SPR. The conditions noted are these: 2'-OMe at C3,G6,A16,A19,C20,C28; Bn-dU9 to Pe-dU; Bn-dU12 to Nap-dU; other dT Bn-dU; SB17T: 40 mM HEPES pH 7.5, 102 mM NaCl, 5 mM KCl, 5 mM MgCl2, 1 mM EDTA, 0.05% Tween 20, 37 C.

human interleukin-6 (Homo sapiens), sequence (P05231 30-212): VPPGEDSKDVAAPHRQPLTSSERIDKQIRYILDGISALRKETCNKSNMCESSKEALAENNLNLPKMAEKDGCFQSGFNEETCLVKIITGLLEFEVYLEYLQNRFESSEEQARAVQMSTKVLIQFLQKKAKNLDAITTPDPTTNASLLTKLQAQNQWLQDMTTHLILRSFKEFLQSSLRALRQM

What is called Kd is the free concentration of one partner at which half of the binding sites on the other are occupied at equilibrium, for simple one-to-one binding. Lower therefore signals higher affinity. In series [1] (Bn-dU replaces dT), “GGCAGGUUUGGUAUUAACACGUUAAGUCGUGG [SL1023]” gave a dissociation constant (Kd) of 1 nM.

Turning to “GGCAGGUUUGGUAUUAACACGUUAAGUCGUGG [SL1025]”, the dissociation constant Kd in series [1] (2'-OMe at C3,G6,A16,A19,C20,C28, Bn-dU9 to Pe-dU, Bn-dU12 to Nap-dU, other dT Bn-dU) was 0.16 nM; in series [2] it was 0.23 nM.

Take “GGGGUUAUGUAGCGAGUGCGUAAGGCGGUGGGCGAGGGA [SL1030]”: the binding signal (fold weaker than SL1032) in series [1] (Nap-dU replaces dT) is 10.
